The Kd is the equilibrium constant for the complex coming apart. Usually stoichiometry N stands for a count of units in the complex or per binding partner. A word on the IC50: it is the midpoint of a concentration-inhibition curve. A lower IC50 goes with higher potency.

Ends that are not written are not given here.

Here are results for twelve molecules from PMC7305997 (ACS chemical biology, 2020).

To fix the notation:
T1: Full length human CIB1 (calcium and integrin binding protein 1), N-terminal hexahistidine tag (human, UniProt Q99828 1-191)
T1 sequence (looked up): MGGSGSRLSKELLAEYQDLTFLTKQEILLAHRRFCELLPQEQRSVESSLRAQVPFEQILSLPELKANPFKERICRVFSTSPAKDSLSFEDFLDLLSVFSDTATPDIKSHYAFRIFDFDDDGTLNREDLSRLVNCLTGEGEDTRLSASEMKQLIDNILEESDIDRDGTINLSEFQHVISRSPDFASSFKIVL

T2: full length human CIB1 (Homo sapiens, UniProt Q99828)
T2 sequence (Q99828 1-191): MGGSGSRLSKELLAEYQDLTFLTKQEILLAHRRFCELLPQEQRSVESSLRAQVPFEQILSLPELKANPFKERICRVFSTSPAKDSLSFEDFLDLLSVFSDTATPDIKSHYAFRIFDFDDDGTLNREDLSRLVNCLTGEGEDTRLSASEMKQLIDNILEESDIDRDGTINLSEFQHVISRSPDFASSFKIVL

T3: biotinylated CIB1 (Homo sapiens, UniProt Q99828)
T3 sequence (Q99828 1-191): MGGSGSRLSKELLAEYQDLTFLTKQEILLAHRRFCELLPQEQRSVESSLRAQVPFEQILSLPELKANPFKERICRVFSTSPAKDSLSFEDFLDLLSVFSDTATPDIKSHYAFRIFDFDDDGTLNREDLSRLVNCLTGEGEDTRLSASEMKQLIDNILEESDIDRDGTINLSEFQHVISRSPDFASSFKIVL

The first experiment concerns the target T1, Full length human CIB1 (calcium and …). As to the kind of experiment: ITC.
Details: not given
For the molecule Ac-EDGGSFWYGAMKALYG [Acetyl long (Ac-EDGGSFWYGAMKALYG)], the Kd amounted to 45 nM, the dH is -16.1 kcal/mol and the “stoichiometry N” value amounted to 1.1.

For Ac-FWYGAMKALYG [Acetyl short (Ac-FWYGAMKALYG)], the Kd is 52.1 nM, the dH is -14 kcal/mol and the “stoichiometry N” value was found to be 1.1.

With H-EDGGSFWYGAMKALYG-NH2 [UNC10245092 (NH2-EDGGSFWYGAMKALYG-amide)], the dissociation constant Kd was determined as 29.4 nM, the dH was -14.4 kcal/mol and the “stoichiometry N” value was 1.1.

Consider EDGGSFWYGGMKALYG [UNC10245092 A5G], for which the dH is -7.7 kcal/mol and the “stoichiometry N” value is 1.

For EDGGSFWYGAMKGLYG [UNC10245092 A8G], the dH was -13.8 kcal/mol and the “stoichiometry N” value turned out to be 1.

Regarding EDGGSFWAGAMKALYG [UNC10245092 Y3A], the dH is -16.1 kcal/mol and the “stoichiometry N” value was found to be 1.

Consider EDGGSFWYGAMKALAG [UNC10245092 Y10A], for which the dH was -7.1 kcal/mol and the “stoichiometry N” value came to 1.1.

On to EDGGSFWYGAMKAAYG [UNC10245092 L9A], for which the dH is -8.8 kcal/mol and the “stoichiometry N” value stood at 0.99.

In the case of EDGGSFAYGAMKALYG [UNC10245092 W2A], the dH was -5.9 kcal/mol and the “stoichiometry N” value was 0.67.

With EDGGSAWYGAMKALYG [UNC10245092 F1A], the dH is -9.8 kcal/mol and the “stoichiometry N” value was 0.94.

Take EDGGSFWYGAAKALYG [UNC10245092 M6A]: the dH is -8.1 kcal/mol and the “stoichiometry N” value stood at 1.

A further experiment deals with T2, full length human CIB1. As to the kind of experiment: Isothermal titration calorimetry. Particulars: ITC, 25°C, one site binding model; replicates as for Kd.
On to EDGGSFWYGAMKALYG-NH2 [UNC10245092], for which the “n (binding stoichiometry)” value is given as 1.1 ± 0.1 and the ΔH is -14.4 ± 2.2 kcal/mol.

A further experiment has as its target T3, biotinylated CIB1. Put plainly: biochemical. The class given is binding.
Details: not given
As for EDGGSFWYGAMKALYG-NH2 [UNC10245092], the midpoint of inhibition, the IC50, lay at 46 ± 13 nM and the affinity, expressed as Kd, was 46 ± 13 nM.
